From the supplement of paper PMC6757056
± gives the standard deviation of the averaged measurements.

B1: library; a variant is named by its letters at N, in order (parent)
chain: GCUGUCACCGGUGUAUUACCCUAGUGGUCGACCGGUCUGAUGAGUCUNNNNNNAGACGAAACAGC

Experiments:
hypoxanthine [1] = variants of: B1; assay: FACS-Seq fitted mean relative fluorescence mCherry/BFP without ligand (log10 relative fluorescence); ligand: hypoxanthine (xanthine aptamer); higher = higher reporter protein expression; details: HEK293T, ligand present: no
Summary of the method: (§1)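 An mCherry reporter containing the ribozyme switch and an EF1α-BFP marker were introduced by lentivirus into HEK293T libraries. Cells were enriched, incubated 48 h with or without ligand, sorted into 6 bins by mCherry/BFP, and bin genomic DNA was PCR-amplified, barcoded and sequenced on MiSeq. Fluorescence represents the normalized fitted normal mean of the bin counts. Fitting was done on log10(mCherry/BFP), scaling to five spiked-in control ribozymes.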

hypoxanthine [2] = variants of: B1; assay: normalized RNA/DNA level with ligand (relative to sTRSVctl = 100) (log10 (% of sTRSVctl)); ligand: hypoxanthine (xanthine aptamer); higher = less ribozyme self-cleavage, higher mRNA level; details: ligand concentration (+) RNA-Seq: 5 mM, HEK293T, reporter: mCherry (pCS4076), ligand present: yes
Protocol: (§2)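 Hammerhead (sTRSV) ribozyme switch libraries with a ligand aptamer grafted on stem I and a randomized N4-6 loop II, cloned into the 3' UTR of mCherry and transiently transfected into HEK293T cells; RNA-Seq 72 h post transfection with ligand added 1 h before transfection; RNA read count / plasmid DNA read count normalized to the non-cleaving sTRSVctl (x100), log10; sequences with >100 DNA reads. FACS-Seq: lentiviral library sorted into 6 bins after 48 h ligand, log-normal fit mean of mCherry/BFP scaled to controls. Printed sequences are partial switch sequences.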

hypoxanthine [3] = variants of: B1; assay: normalized RNA/DNA level without ligand (relative to sTRSVctl = 100) (log10 (% of sTRSVctl)); ligand: hypoxanthine (xanthine aptamer); higher = less ribozyme self-cleavage, higher mRNA level; details: HEK293T, reporter: mCherry (pCS4076), ligand present: no
Protocol: as §2

hypoxanthine [4] = variants of: B1; assay: FACS-Seq fitted mean relative fluorescence mCherry/BFP with ligand (log10 relative fluorescence); ligand: hypoxanthine (xanthine aptamer); ligand concentration (+) FACS-Seq: 5 mM; higher = higher reporter protein expression; details: HEK293T, ligand present: yes
Summary of the method: as §1

Variant	FACS-Seq fitted mean (log10) (hypoxanthine [1])	normalized RNA/DNA level with ligand (log10) (hypoxanthine [2])	normalized RNA/DNA level without ligand (log10) (hypoxanthine [3])	FACS-Seq fitted mean (log10) (hypoxanthine [4])
GCCUAA	0.363 ± 0.14	1.94 ± 0.071	1.8319 ± 0.00042	0.558 ± 0.036
GCCUAG	0.303 ± 0.03	1.89 ± 0.097	1.5 ± 0.12	0.678 ± 0.037
GCCUUA	-0.138 ± 0.047	1.97 ± 0.0091	1.92 ± 0.026	-0.197 ± 0.092
GCCUUG	0.213 ± 0.0088	1.93 ± 0.05	1.46 ± 0.016	0.64 ± 0.021
GCCUUC	-0.325 ± 0.056	1.968 ± 0.0039	1.88 ± 0.058	0.101 ± 0.059
ACACCC	0.129 ± 0.016	1.97 ± 0.1	1.87 ± 0.12	0.45298 ± 0.00015
ACCGAU	0.387 ± 0.047	1.89 ± 0.056	1.669 ± 0.0087	0.531 ± 0.015
UCCUGC	0.86 ± 0.054	2.01 ± 0.056	1.919 ± 0.018	0.812 ± 0.091
UCCUGG	0.439 ± 0.047	1.94 ± 0.025	1.77 ± 0.073	0.518 ± 0.021
ACAUGU	0.399 ± 0.057	1.91 ± 0.052	1.65 ± 0.061	0.567 ± 0.024
ACAUGA	0.3098 ± 0.0019	1.91 ± 0.019	1.66 ± 0.026	0.509 ± 0.021
ACAUGG	0.335 ± 0.022	1.87 ± 0.035	1.29 ± 0.027	0.631 ± 0.1
CCCGGA	0.102 ± 0.0056	1.97 ± 0.042	1.88 ± 0.036	0.0786 ± 0.0026
CCCGGG	0.92 ± 0.051	1.94 ± 0.12	1.6826 ± 0.0015	0.833 ± 0.061
ACAGGU	0.51 ± 0.04	1.858 ± 0.0068	1.49 ± 0.082	0.744 ± 0.054
ACAGGG	0.428 ± 0.034	1.83 ± 0.038	1.44 ± 0.032	0.788 ± 0.041
ACAGGA	0.278 ± 0.028	1.905 ± 0.013	1.66 ± 0.043	0.473 ± 0.069
CCCUUA	0.315 ± 0.0096	2.002 ± 0.019	1.905 ± 0.014	0.279 ± 0.083

Variant	FACS-Seq fitted mean (log10) (hypoxanthine [1])	normalized RNA/DNA level with ligand (log10) (hypoxanthine [2])	normalized RNA/DNA level without ligand (log10) (hypoxanthine [3])	FACS-Seq fitted mean (log10) (hypoxanthine [4])
CCAUUC	-0.142 ± 0.078	2.022 ± 0.0033	1.9 ± 0.07	0.309 ± 0.014
CCGAAA	0.595 ± 0.015	1.91 ± 0.049	1.7 ± 0.04	0.689 ± 0.05
ACCGGG	0.153 ± 0.0079	1.944 ± 0.015	1.89 ± 0.038	0.548 ± 0.0066
ACAAUG	0.37 ± 0.017	1.87 ± 0.061	1.56 ± 0.053	0.638 ± 0.044
CCCCAA	-0.321 ± 0.081	1.92 ± 0.018	1.78 ± 0.046	-0.16 ± 0.025
ACCGUA	0.247 ± 0.0083	1.93 ± 0.065	1.822 ± 0.014	0.474 ± 0.038
UCACCA	0.743 ± 0.044	1.93 ± 0.025	1.919 ± 0.0074	0.834 ± 0.076
UCACCG	0.705 ± 0.011	1.94 ± 0.027	1.7 ± 0.025	0.592 ± 0.045
UCACCU	0.67 ± 0.034	1.94 ± 0.037	1.94 ± 0.061	0.419 ± 0.013
UCGAAA	0.163 ± 0.02	1.86 ± 0.052	1.4 ± 0.051	0.395 ± 0.045
GCAGUC	0.791 ± 0.051	1.94 ± 0.047	1.71 ± 0.047	0.764 ± 0.064
GCAGUG	0.155 ± 0.01	1.87 ± 0.075	1.4 ± 0.064	0.533 ± 0.039
CCCACA	0.706 ± 0.022	1.99 ± 0.086	1.862 ± 0.0068	0.739 ± 0.032
UCCCGU	0.434 ± 0.043	1.934 ± 0.0021	1.703 ± 0.015	0.554 ± 0.048
GCCCAG	0.0481 ± 0.032	1.81 ± 0.052	1.4 ± 0.027	0.24 ± 0.019
UCACAU	-0.364 ± 0.044	1.93 ± 0.051	1.8 ± 0.021	0.26 ± 0.027
CCACCC	0.2004 ± 0.0019	1.93 ± 0.044	1.93 ± 0.045	0.312 ± 0.0055
